{"source": "the DeepSol protein solubility set", "data": [{"test": "soluble on expression in E. coli; label from the status in PepcDB or PDB records", "values": [{"sequence": "MSLSRILFLTDLHWDHDYLEGTDPDCADPLCCRRGSGLPPASRPGAGYWGEYSKCDLPLRTLESLLSGLGPAGPFDMVYWTGDIPAHDVWHQTRQDQLRALTTVTALVRKFLGPVPVYPAVGNHESTPVNSFPPPFIEGNHSSRWLYEAMAKAWEPWLPAEALRTLRIGGFYALSPYPGLRLISLNMNFCSRENFWLLINSTDPAGQLQWLVGELQAAEDRGDKVHIIGHIPPGHCLKSWSWNYYRIVARYENTLAAQFFGHTHVDEFEVFYDEETLSRPLAVAFLAPSATTYIGLNPGYRVYQIDGNYSGSSHVVLDHETYILNLTQANIPGEGHHHHHH", "soluble on expression in E. coli": "soluble"}, {"sequence": "MSLSRQRCIIVGASHGGVNLAFALRKEGYEGRITLIDADCNLPYHRPPLSKTHLIANEPAGQLLKPEQGYQKADISLMLGVSVVDVKSKNKQVLLDDGTRHPYTQLVLATGASPITPPIPGIDSAKHLYTIRTADDAHAIATAFKQSEQKRVVVIGGGYVGLETAASLRKSGAVVTVLEREPRLLARVTAPMMSDYFYALHRQHGVEVHNDKNVSEIKTNANENSVVCSDGSEYPADIIIVGVGVRVNTALADKANLEINNGIVVNEANQTSAQDIFAIGDCCAQFNPHYQRWLRLESVQNALDQGKVAAAAICHKAFKTQPVPWFWSDQYNIKLQMVGLSQGYDDVVMRKELDKPDSFSVWYFKGNELLAVDAVNNAKAYVLGTKFINAMEQVDKNKLTDNSAPLSASIIKEFAEGHHHHHH", "soluble on expression in E. coli": "soluble"}, {"sequence": "MSLSRSLDSARSFLERLEARGGREGAVLAGEFSDIQACSAAWKADGVCSTVAGSRPENVRKNRYKDVLPYDQTRVILSLLQEEGHSDYINGNFIRGVDGSLAYIATQGPLPHTLLDFWRLVWEFGVKVILMACREIENGRKRCERYWAQEQEPLQTGLFCITLIKEKWLNEDIMLRTLKVTFQKESRSVYQLQYMSWPDRGVPSSPDHMLAMVEEARRLQGSGPEPLCVHCSAGCGRTGVLCTVDYVRQLLLTQMIPPDFSLFDVVLKMRKQRPAAVQTEEQYRFLYHTVAQMFCSTLQNASEGHHHHHH", "soluble on expression in E. coli": "soluble"}, {"sequence": "MSLSRVPRPHIHQRISVEDIMKGNRRTLAKAITLAESSNPADSTRLGNLLREIHQMATVRTVPRFALSGSPGSGKSSLLDTLGYYLCEKKNMHVGVLAVDPSSTITHGSILGDKTRMEKLGTHLNSYIRPSPSGGHLGGVTSRAWEALEIFEAARFDVVFVETVGVGQSETQCKDLTDMMILLVPPASGDELQGIKKGVVEVADMVVVTKNDGRRKPLVQQTMSAYARAVMYTEEKQGFEKPVIAVSAEEGTNVPELWEAMLKMWNARLESGQIAHLRRAQSTKHFYNYFEMELLAKARRMTNLEMQNMAHRVWEHEMTPREAGDIMVLRTLREHLAADAAVQHDAGKRAEGHHHHHH", "soluble on expression in E. coli": "soluble"}, {"sequence": "MSLSSEQQAMIDYVLAGKDVIVDATVGSGKTTAIQRLCSIMGADHDVLYLTYSKLLKVDAQQRVRGAKVQNYHGIVYPHLLKAGIKCGISESIREFNKNFKHISRTFPSYDLLVIDEYQDINEDYAELLRNIKSVNPLMQIVMVGDLEQKVRSDTTLDPQEFAAQLCEDPVFAPFTQSFRIGEAMAAGLADAWNKPIVGANTAQQIEYRSFAEAVVLIQSTEPSKLLCLGSRNGQMSDALNVVERKSPAKFNKKTVFASIRDGDSQIAHPNDAAVFTTFDSSKGLERDTCVVFDYDEEFWDMRLGYPNVDPVVMRNVFLVAASRGKNKVVFVRSDSLQAAYEAGADWAAGLAVGVVDNNTEVAPEVDAHTPAEESKGDVGEVQSQIERMMGFIPVSVFKELPELAPSEYARPISVTEAFDFKYAENVEACFDLLDVKRLDNGKGAAIEVNRSDGLIDLSPTVGNFQEAVFFKDYNVHTALSAYPSQFAKNLKRLVKKNNSVWRNCLIVTAASTEQMRYVDQVRSSIPVAAEKALVSRLSTRLNADSRNQIPLILDGEAVQSKVVRTPMSFAGVADAVHKGVLYELKFVSELTHPMFLQLAMYLVMSGMKDGILWNTRTDEAWQVRVPDPKRFLNAVVLCVSKQDYRVGNFDLPSTGGEGHHHHHH", "soluble on expression in E. coli": "not soluble"}, {"sequence": "MSLSSILECIRTVGRGERGRKPLNFDQAFRVMDEYLNGECGDDQMAMLLMLIRVQNETQQEIAGFVKAFQSRMPAIGADIDWPCYAGKREAAGQPWHLLAAKILADNGHKVLMHGYHDRQPGRLHAEDYLDKFAIKKAESAEDAKRVLETQNIVYLPLSAFAPQAETMIGWKNRYGLRTPINTVVRALNPGQATVGIRGSFHPGFQQLHAEVEYEIGQTAHAVVSFKGQSGESEYNPKVSQTVWLSQPSGVTSHYWTEQMLSEVPMPTVCPFGTEETDMNQMANTVLTTIAVVLFAEMHDREQAFERAFSYWASYCAAEGHHHHHH", "soluble on expression in E. coli": "soluble"}, {"sequence": "MSLSSIRKKDVERFILSDDYKPMVLKELYKKFRAKTREQRKKVREVVKKLEKEGRIFRDSRGRYRKLGEDLKVGTIEFTRSGYVAFVITDDFEEIAVPVEDTKYAMHKDRVVVEITGTWRGLPRGRVVRVLERGLKRVVGVFDHKGTFGFVVPDDPKIAYDFYVAPENIDGAKPNQKVIAEILKYPSPGKNPEAKVVKVLGDLDDPSIDLPSVIVKHDLPEPGEFPEEVIREANAIPARVRKKDLVGRKDLRDKVIVTIDGEDAKDFDDAISVEKLPNGNYLLGVHIADVSHYVKEGSALDQEAFKRGTSVYLIDTVIPMLPFRLSNGICSLVEGKDRLTMSVEMEIDRDGRVVRYDVYPSVIKSKKRMIYERVNEFLEDPSSMKEYEPFKDLIYNAVELAEILREARRKRGAILDIESDEVKVILDENGQVVDIVPRKRGIAEKLIEEFMIRANETVAEIFDHAGLPFMYRVHEEPDPETIFQLKNYLEAMGIRAKFSHKIHPGMLQKLLEKVKDHPLRSSVERLLVRSMKRAMYSAVNIGHFGLASYAYTHFTSPIRRYPDLVVHRLLKLYLEQNGYFTPEQIEKFSKVLPKIAKHCSRRERVADEAEWDLVAMKKVEYIARHIGEVFNVVVTNITKFGLFVEIPEKSISGLVHISTLDDYYYYDETRNMLIGKRKGKVFRLGDVLKAKVVRADKIRGEIDFVLVEEDEEEGHHHHHH", "soluble on expression in E. coli": "not soluble"}, {"sequence": "MSLSSKDLKLSTDVCEQILRVVSRSNRLEELVLENAGLRTDFAQKLASALAHNPNSGLHTINLAGNPLEDRGVSSLSIQFAKLPKGLKHLNLSKTSLSPKGVNSLSQSLSANPLTASTLVHLDLSGNVLRGDDLSHMYNFLAQPNAIVHLDLSNTECSLDMVCGALLRGCLQYLAVLNLSRTVFSHRKGKEVPPSFKQFFSSSLALMHINLSGTKLSPEPLKALLLGLACNHNLKGVSLDLSNCELRSGGAQVLEGCIAEIHNITSLDISDNGLESDLSTLIVWLSKNRSIQHLALGKNFNNMKSKNLTPVLDNLVQMIQDEESPLQSLSLADSKLKTEVTIIINALGSNTSLTKVDISGNGMGDMGAKMLAKALQINTKLRTVIWDKNNITAQGFQDIAVAMEKNYTLRFMPIPMYDASQALKTNPEKTEDALQKIENYLLRNHETRKYLQEQAYRLQQGIVTSTTQQMIDRICVKVQDHLNSLRNCGGDAIQEDLKSAERLMRDAKNSKTLLPNLYHVGGASWAGASGLLSSPIQETLESMAGEVTRVVDEQLKALLESMVDAAENLCPNVMKKAHIRQDLIHASTEKISIPRTFVKNVLLEQSGIDILNKISEVKLTVASFLSDRIVDEILDALSHCHHKLADHFSRRGKTLPQQEGHHHHHH", "soluble on expression in E. coli": "not soluble"}, {"sequence": "MSLSSKEYFSDTDSFENTPCPLCGSESSSLLYEINSYKYNKCNNCELVYLNPRLKEESLLEYYAQDSFYAEYSSGTGYEIQERALRSTFSRYMKELHKRNVTGGKLLEIGCGFGFLLDEAKNYFDYRIGTDFSSEAVSHAKKYADNVYCGGLEAIPSDTSTKFDCVITFSVLEHVYNPNTFIQEIQNYMAPNGSLVVSTPFIGGMWYKILGKKWSFFIPPEHVCLYNHNSISQLLKQNGFKNIEMFISSHAWPVAGFLSKMGMRKLSSMTLKLKIGDVPLFVPFTIINIIGSKEGHHHHHH", "soluble on expression in E. coli": "soluble"}, {"sequence": "MSLSSVNCIEQTTEWTACSKSCGMGFSTRVTNRNRQCEMLKQTRLCMVRPCEQEPEQPTDKKGKKCLRTKKSLKAIHLQFKNCTSLHTYKPRFCGVCSDGRCCTPHNTKTIQAEFQCSPGQIVKKPVMVIGTCTCHTNCPKNNEAFLQELELKTTRGKMEGHHHHHH", "soluble on expression in E. coli": "not soluble"}, {"sequence": "MSLSTADALDDENTFKILVATDIHLGFMEKDAVRGNDTFVTLDEILRLAQENEVDFILLGGDLFHENKPSRKTLHTCLELLRKYCMGDRPVQFEILSDQSVNFGFSKFPWVNYQDGNLNISIPVFSIHGNHDDPTGADALCALDILSCAGFVNHFGRSMSVEKIDISPVLLQKGSTKIALYGLGSIPDERLYRMFVNKKVTMLRPKEDENSWFNLFVIHQNRSKHGSTNFIPEQFLDDFIDLVIWGHEHECKIAPTKNEQQLFYISQPGSSVVTSLSPGEAVKKHVGLLRIKGRKMNMHKIPLHTVRQFFMEDIVLANHPDIFNPDNPKVTQAIQSFCLEKIEEMLENAERERLGNSHQPEKPLVRLRVDYSGGFEPFSVLRFSQKFVDRVANPKDIIHFFRHREQKEKTGEEINFGKLITKPSEGTTLRVEDLVKQYFQTAEKNVQLSLLTERGMGEAVQEFVDKEEKDAIEELVKYQLEKTQRFLKERHIDALEDKIDEEVRRFRETRQKNTNEEDDEVREAMTRARALREGHHHHHH", "soluble on expression in E. coli": "not soluble"}, {"sequence": "MSLSTKNHFIFPTYVQMYPYSKDRPFLKQVREKLRYYGYKWLYQKQCSQLVDFLNTETQWQSLFTQDYYRTNTILTTFCDKRFSASERLTAITENLRLAEEKMGRSLCQQLLDQQHIVLTQLTEDLRLSLSINHIDPFEGYFSINIRNQNNERVYDSSFTFLSPNKLLIASIQGPSSDNAQELVKQATKALHGMRPMFMLVNGFKMLAEKWQCELVGIPHKAQGKYRLSARSKILFNYDEFWQENQGEYRHNYWQLPLHIERKQLEDIASKKRSMYRKRYEMLDQMALDIQQLEGHHHHHH", "soluble on expression in E. coli": "soluble"}, {"sequence": "MSLSTTPGLYAVIKLTHLYLPGTLKIHHLKGQLLDQFSIGEMEYQHQGTKIKIFNLAVNWRFSSLLHKKLPIDSMSAEMIEINQKTPMLILKNIKLSGYLNQQSIKLNTLQFNYWNQLITSQLELSNSFPHVFSGKIRLNPHSTNKNIFSGGVDIGGNRNQIQWGGEFEGPGKITINGSLQQLKQIKQIIKWRDLHWQDNKNHNLKSSQGRIEVSGTIPNLAIDLKSKLGIDQLKNWQMNAAIKGKLPWQWNINATFSQPLDFSSKLDGLYTKFALKMETKNDHHADFLITIAPGHYQMTENNLMPLIQFTGGNIKGSLSQKQFSGQGVLFLDAYKKVNFNFKFPEFNVYQDIAQQTIDAKLSILFNSLDFLQNASPYLINPKGQFLASIHAKGTLNKPIIESKLALNKGSFNIPALGLNITDMVLAVFSKKDGWEATGSIHSSEKKLTLKGQGIFNKELGGTVSIEGSNFPIANNKEFQVNISPQLQVRFTPSLCQITGTIQIPNAHIKPQTFTNSLVATDDIVFTSKNTQPITPLFNTNMSVRVEMGEEVELTFKGLHAYLAGIVTINQLSQGPITANGELTVRKGEYKAYGQDLSIEQGQLIFTGGRIDNPEINLRASKNISNSFGSVSGSSELFNFNNYNNLNVGNNFNVGVEVAGRLQSPKIQLFSNPPTLSQADILSFLVIGRPANQADKAKGQLLLTAISSMNLGTGTNGTQLLEQLKQKLGFDFNVQTTTNFNQQTNKISESTGVVVGKSLSDRIYLSYNVGLSQTDPNVLTLKYILNKFLSIQVSSSDSGNGVDILYTKSTSSPEEGHHHHHH", "soluble on expression in E. coli": "not soluble"}, {"sequence": "MSLSVEAMIGQLNAEIKRLDRLIRSHLNQHPELKKDFDLLTSIKSVGYQLGLNMLVILRSHDFATAEQAAAFLGVVPVEKYSGTSVRGCPKLSKIGPPEIRAKLYLASLCGLRFNPLMKAMYERLCLRGKGKMCAIGALMRKLVHWCYGVLKTQKPFDVGYLSSYARSACKAAEGHHHHHH", "soluble on expression in E. coli": "soluble"}]}]}
